Test: soluble on expression in E. coli; label from the status in PepcDB or PDB records

Sequence | soluble on expression in E. coli
MAVLWRLSAVCGALGGRALLLRTPVVRPAHISAFLQDRPIPEWCGVQHIHLSPSHHSGSKAASLHWTSERVVSVLLLGLLPAAYLNPCSAMDYSLAAALTLHGHWGLGQVVTDYVHGDALQKAAKAGLLALSALTFAGLCYFNYHDVGICKAVAMLWKL | not soluble
MIFMFRKVLFPTDFSEGAYRAVEVFEKRNKMEVGEVILLHVIDEGTLEELMDGYSFFYDNAEIELKDIKEKLKEEASRKLQEKAEEVKRAFRAKNVRTIIRFGIPWDEIVKVAEEENVSLIILPSRGKLSLSHEFLGSTVMRVLRKTKKPVLIIKEVDENELAKTKGTSG | soluble
TPQSITRKVARYIPGTVEHLQEQQQYARKIRDVTAQKVDQFSNVFHALSESFATFYQASDEQTDDSEVDLFLSKITEHSCQTCYKKNRCWVQNFDKTYDLMKQVMLETEEKEYASNRRLKKEFQQYCSKSKQVEELIEDELAHHHAHLTLKKKVQDSRRLVAEQLLGVSEVMADFSREIKREREQHFLQEEQIIEALQHFGIEIQHVEIYSLEQGNIDIEMTIPFSGHGESEKIIAPMLSDILEEQILVKAEQHSPHPNGYSHVAFGSTKSYRVSTGAAHAAKGGGLVSGDSYSMMELGARKYAAAISDGMGNGARAHFESNETIKLLEKILESGIDEKIAIKTINSILSLRTTDEIYSTLDLSIIDLQDASCKFLKVGSTPSFIKRGDQVMKVQASNLPIGIINEFDVEVVSEQLKAGDLLIMMSDGIFEGPKHVENHDLWMKRKMKGLKTNDPQEIADLLMEEVIRTRSGQIEDDMTVVVVRIDHNTPKWASIPVPAIFQNKQEI | not soluble
MTQNINQLAVNTIRTLSIDAINAANSGHPGLPMGAAPMAYALWANHLNHNPNHPKWFNRDRFVLSAGHGSSLLYSLLHLAGYDVSIDDLKNFRKLNSKTPGHPEFGHTSGVEATTGPLGQGIANAVGMAMAEAHLAAKFNKDGHSIIDHNTYALVGDGDLMEGVAYEAMSMEGVAYEAMSMAGHMKLGKLIVLYDSNEISLDGELNIAFSEDMQKRVESAHWQYVRVEDGNDVDAITKAIQLAKDNTDQPTLIEIRTVIGYGSPKVAGTNKAHGNPLGLEEATATKQVYGWHYEEDFFVPEEVTAHFNELKQKGIEKERGWNEQFNLYRESNPALADELEKAIIGEVLIEAKDILSFDSEKTISTRVASGEAINHYVKSIPSIFGGSADLSHSTMTDIKGEAVYAVESYAGRNIYFGVREHAMGAAANGLALHGGVKPFVSTFFVFNDYLRPSIRLAALQKLPVTYVFTHDSIAVGEDGPTHEPIEHLAALRAIPGLTVIRPSDANETASAWAYALQQTEGPVVLVLSRQNLPVFHETKANIENLSKGAYVLTQTNENPDVILIATGSEVSLAASAKAKLEEDNVSVRIVAMPSWELFDRQSKEYKESVLPSSVTKRVSLEMGVSLGWERYVGQEGNILSIETFGASGTGAEVMNLFGFTTENVVQITKNVLNS | not soluble
MAWWKAWIEQEGVTVASSSHFNPDPDAETLYKAMKGIGTNEQAIIDVLTKRSNTQRQQIAKSFKAQFGKDLTETLKSELSGKFERLIVALMYPPYRYEAKELHDAMKGLGTKEGVIIEILASRTKNQLREIMKAYEEDYGSSLEEDIQADTSGYLERILVCLLQGSRDDVSSFVDPALALQDAQDLYAAGEKIRGTDEMKFITILCTRSATHLLRVFEEYEKIANKSIEDSIKSETHGSLEEAMLTVVKCTQNLHSYFAERLYYAMKGAGTRDGTLIRNIVSRSEIDLNLIKCHFKKMYGKTLSSMIMEDTSGDYKNALLSLVGSDP | soluble
MSLFRIQLRTMSSKTCKSDYPKEFVSFLNSSHSPYHTVHNIKKHLVSNGFKELSERDSWAGHVAQKGKYFVTRNGSSIIAFAVGGKWEPGNPIAITGAHTDSPALRIKPISKRVSEKYLQVGVETYGGAIWHSWFDKDLGVAGRVFVKDAKTGKSIARLVDLNRPLLKIPTLAIHLDRDVNQKFEFNRETQLLPIGGLQEDKTEAKTEKEINNGEFTSIKTIVQRHHAELLGLIAKELAIDTIEDIEDFELILYDHNASTLGGFNDEFVFSGRLDNLTSCFTSMHGLTLAADTEIDRESGIRLMACFDHEEIGSSSAQGADSNFLPNILERLSILKGDGSDQTKPLFHSAILETSAKSFFLSSDVAHAVHPNYANKYESQHKPLLGGGPVIKINANQRYMTNSPGLVLVKRLAEAAKVPLQLFVVANDSPCGSTIGPILASKTGIRTLDLGNPVLSMHSIRETGGSADLEFQIKLFKEFFERYTSIESEIVVEGHHHHHH | soluble
KKYVVFDMDGTLTTTDFEDVKQYAGEFFNSNYVAKMYPDVDNVVKYYASKGYGILYLTARPYWLSEESQTWLWKNGFPMGLLHTYTGGDVLLGEEAESFKAGYLNQLKSQGIEFDYGFGNEKTDVEAYSNIGIAKSNIFTIGKNRGIDGSVSIVSYTDYLKQLSGN | not soluble
MSKLPMLSQNPENIKILHTAADFRYELLKQIENAQQRIYIVALYLENDDAGREIFTALYEAKQKNPTLDINVLVDWHRAQRGLIGAEKSDGNAALYREFSEKYEHSINVLGVPVRNKEVFGVLHLKGFIFDDTVVYSGASLNDVYLAHKDKYRFDRYHVLNNALLANSMVSFIKKTLIASPAVNCLSQQNRPDTKSLKPEIKELRKQLGLANYQFTSQTRKEGEVGITPLVGLGRKGNKLNNYIRTLLASATSEITICTPYFNFPKPIAKELKKALRRGVKVTIIVGDKTANDFYISPEEEFKTIAGLPYLYEINLRNFAKANETYIASRQLSLNLWKHENNSFHLKGMWVDKEYTLITGSNLNPRAWKLDLENGLLLQDPEQLLVDTKQAELDVILEHTQLIGSYKQVDKLDSYPVEVKKLIKRIKRIKADHILNQILLEHHHHHH | soluble
MGHHHHHHSHGVSAAVTSMSVPTPIYQTSSGQYIAIAPNGALQLASPGTDGVQGLQTLTMTNSGSTQQGTTILQYAQTSDGQQILVPSNQVVVQTASGDMQTYQIRTTPSATSLPQTVVMTSPVTLTSQTTKTDDPQLKREIRLMKNREAARECRRKKKEYVKCLENRVAVLENQNKTLIEELKTLKDLYSNKS | not soluble
KMETAFDIERTMGRRIEYVSNILAVSESELGSLYSYDIMIDLGEEGKAKTPEALRALDSIARHAEAYSLTKRTTSILNILKDLNQTLHDGDQAYYSIPGDAEEVAQQLLLYENAGGSEAESWIDYEYRRLRLKVEMTSYNSGEAEWELQDITDYARKLFPEAEITPVGSLPQFTTMMQYVVRGQ | not soluble
MFVFGAYWFDCGERAVLPANSRGALRPQCTRLRFWRGRYWHRGAVSALRRVRPLSASTPSPRVLDGSQSLADTPDNVQQLLQHMSQELDSVVQSMVHLEEYALEQVEKLKGAMEADLRKLALYEEEQAFAQKLTEQLQKKEGAVFEAMRHFLFHVVGLQEQTVAITNELQVLHEFVSENHERVELVLESLRERGLFGSRQDVFEGEVKKKLDRFDPEI | not soluble
GIKDSPVNKVEPNDTLEKVFVSVTKYPDEKRLKGLSKQLDWSVRKIQCWFRHRRNQDKP | soluble
MAAIDLNSDLGESYGAWRMGDDEAMLAIVSSANIACGFHAGDPAGIYRTVKAAAEKGVVVGAHVSYPDRVGFGRRDLDATSEELIADVIYQIGALKGVAAAAGTTVRYVKPHGALYNRIANDAKQGQAVIDGIKAIDPSLVLMGLANAPILDLARKAGLAVVAEAFADRAYTPEGQLVSRREAGAVLHDAAKIAERMVQLAREGTLEAIDGSIIKIEAQSICVHGDSPGAVAIAQEIRRRFEADGIAIRSFASDRLEHHHHHH | not soluble
MGSDKIHHHHHHMIYDMSGIYLSSLTGIRNNSSSSSNSLDKEAFLRLLLQELEMQDPLEPMETKDMISQLSQLTSLEQITNLTSAVKDFVEAQTSVSPAQLASLIGKYVVVRNNTVNLVGGQSDSIIFNVDEDAHVVVQILDENGKLVRTEDLGTVQVGVHAWQWDGRDDNGISVEDGSYTYRVYKLTSSGLEEIGGMEGGVVEAVQIKDGKGFVLVNGSLYPVDSILEISQEGDA | not soluble
TKVKSIPLLIVPPWINKYYILDLSPHNSLIRWLVEQGITVFIISWVNPDETYANKSFYDYLNEGPREAIAVIQKQLRVKQVNTLGFCIGGTLLASLLAYNKATKDHSIRSATFLAAMIDFSDPGDIAVFIDEQQINKLEEEMKSKGYLAGKFMASSFNSLRANDLIWSFFIKNYLRGKSPVPFDILYWNADSTNMPATMHSQYLRWMYLHNNLIKPGKIRLNHIPIDVTNIDIPTFFLSTQKDHIAPWKTTYKGFELMKGPKRFVLGGSGHI | not soluble
MSATVKPYQEMESGKREQVELMFNNISPKYDLLNRVLSLGIDKIWRKQALNLLKQDKPAHILDVATGTADLAIEAATRLKPTSVVGIDIAEDMLQIGRGKIAKKNLDKIIRLEKGDSEKINFPDNTFDAVIVSFGVRNFEHLEIGLAEIHRVLKPAGSIMVLEFSKPQNAPFKQVYQFYFKNILPTVGKLISKDSAAYTYLPDSVNAFPDGKAFCSILEKTGFTIKHYKPYTFGVCTAYVGKKLEHHHHHH | not soluble
MTYTTAKAAEKIGISAHTLRFYDKEGLLPNIGRDEYGNRCFTDNDLQWLGLLQCLKNTGMSLKDIKRFAECTVIGDDTIEERLSLFENQIENVKCQIAELKRYLDLLEYKLAFYQKAKALGSVKAVNLPQIPETA | soluble
MSDSRYKVDVSVVTRFLAEQSQPEQNRFAFAYTITVHNNGELPAKLLSRHWIITDGDGHVEEVRGEGVVGQQPLIKVGQSHTYSSGTVMTTQVGNMQGSYQMLAEDGKRFDAVIEPFRLAVPGSLHLEHHHHHH | soluble
KSIELYENNIPNGKTDAILIKNQTLISALKNPKQTKSSQRSSQSTNTQNDAICYLAFNSKIRPDDKDIFLLDKFGEKFVTAIVNFEEKTEVKINTLQEKEAVVLPAPQKFKPTDPKSVALVQGPSLIGIHANANEDRSTIKFLNW | not soluble
MSFEAFTELYIRDVKNRLKENTWLTKEHIIRTKILPFFGKLKISEISTKEIITWQNEMLAYRDEKKKPYSQTYLKTLHNQLSAIFNHAVRYYELRSNPAAKVGNMGSELEHHHHHH | not soluble
MGSDKIHHHHHHMFSIAIQQQQYKTYILSDETTGSQLEVVPERGGIITRWRVKGEEILYLDAERFTHPDLSVRGGVPILFPICGNLPDNSYTLNGQQYTLKQHGFARDLPWEVVEQTTKDTAALTLVLRSNEQTKAVYPFDFQLVFTYVLQGNTLEIRQEYQNLSSTQLPFSAGFHPYFLTGDKNQLEFDIPSQEYQDQQTKEVHPFNGNFDFNRDEMDFAFGHITSQSASVIDRNRQFKLTLDADDIFSMLVFWTLKGKEFYCLEPWSAPRNSLNTGEKLTVLEPGTSYKASVRLSASFF | not soluble
MAHDLARGDKSDLRDKVVKPITNNVSVLVMGVDESDVRGKEYGDAIRTDALLLATFNKDSKTVKLLSIPRDTYTYIPVEKKKDKITHAHAYGSTKNGKDGGPQASIDAVEKLLNVPVDYFVKFNFKSFMKIVDDLGGIEVDVPVEFTEQDSNDNADAIHLKKGVQKLNSEEALALARTRHIDSDAMRGQRQQLVIEAILKKLTSVGSVTKVGNIIDDINGQFVTNLTFDDMLSFYKYGSDSEIEKLQIQGEDCYMAKGLEHHHHHH | soluble
MAHHHHHHMHSRTAPPLPPHTFAQVLHDRFVHYNDGKNKQTNIKRRNANNLNSFSYTAARAQGVVPRVDSTLGLLWTWRWAGAYGVACVCVCLCAADKMSAARHSHPPPPSLSRCRFPPPALFIMHRAHTYLLCIAAHLLLSPPPPSSPSRFVFASSSLSCPGCAFSWVTRFVSSMLRRTLCCGMMQLHALPTPNPLCHTFTIPADSFESFVPQGQSCEVAHRGLAWVHPLSQGLFEQYPQELMSVFIAPRHVSISVYTNVDWSKIEWSISSFLGHYLIFTNACISPAKEYTLMEDDLELKDTDTEVLQCIKELLREQVRPMVQRDGGDVKLLNFNEKTGIVSLAMLGACKTCPSSQNTLKDGIERVMKHFVPEVTEVIEDKEHQFYEDYGLLFDSEKALFKEAARLDRERQAKLRHNLTPMVLSYEVLNEPDGD | not soluble

Reference: the DeepSol protein solubility set
